Test system: Lewis lung carcinoma (3LL)
Test: Lewis lung carcinoma (3LL) survival, 1st experiment (Table A)
Assay type: in vivo, C57B1/6 female mice
Conditions: 100 days; IM-2 0.5 mg/kg/day alone, IM-2 0.5 mg/kg + Il-2 0.05 μg/animal, or IL-2 0.1 μg/animal alone; i.p., 3 weekly cycles
Description: Animals: 3-week-old C57B1/6 female mice were used in all the experiments (Table A, Table B, Table C)
Tumor: Lewis lung carcinoma (3LL) was the tumor selected for all the in vivo assessments (Table A, Table B, Table C) in these experiments, with the cells maintained in culture medium and inoculated subcutaneously in the animals at the concentration of 6×10^5 cancer cells (3 LL) for each animal.
Treatments: All treatments began 24 hours after the inoculation of cancer cells.
Observation period: The animals were evaluated during an observation period of 100 days in the survival experiment.
A fourth batch of 20 animals (Group 4) inoculated with 3 LL cells (6×10^5 cells/animal), was treated with 0.5 mg/kg/day of the proteic aggregate of ammonium and magnesium phospholinoleate-palmitoleate anhydride (Table A—Group 4—IM-2) and Interleukin-12 (IL-12), 0.05 g/animal given jointly by intraperitoneal injections in 3 weekly cycles. The animals were followed up for 100 days.
A fifth batch of 20 animals (Table A—Group 5) inoculated with 3 LL cells (6×10^5 cells/animal) was treated with Interleukin-12 (IL-12), 0.1 μg/animal applied by intraperitoneal injection in 3 weekly cycles. The animals were followed up for 100 days, and the number of survivors was expressed in percentage.

B1: Interleukin-12 (IL-12) (protein, UniProt P29459 23-219; P29460 23-328, looked up)
Interleukin-12 subunit alpha: RNLPVATPDPGMFPCLHHSQNLLRAVSNMLQKARQTLEFYPCTSEEIDHEDITKDKTSTVEACLPLELTKNESCLNSRETSFITNGSCLASRKTSFMMALCLSSIYEDLKMYQVEFKTMNAKLLMDPKRQIFLDQNMLAVIDELMQALNFNSETVPQKSSLEEPDFYKTKIKLCILLHAFRIRAVTIDRVMSYLNAS
Interleukin-12 subunit beta: IWELKKDVYVVELDWYPDAPGEMVVLTCDTPEEDGITWTLDQSSEVLGSGKTLTIQVKEFGDAGQYTCHKGGEVLSHSLLLLHKKEDGIWSTDILKDQKEPKNKTFLRCEAKNYSGRFTCWWLTTISTDLTFSVKSSRGSSDPQGVTCGAATLSAERVRGDNKEYEYSVECQEDSACPAAEESLPIEVMVDAVHKLKYENYTSSFFIRDIIKPDPPKNLQLKPLKNSRQVEVSWEYPDTWSTPHSYFSLTFCVQVQGKSKREKKDRVFTDKTSATVICRKNASISVRAQDRYYSSSWSEWASVPCS
% Survivors: 50%
